Laboratory results as given in patent publication US20250145690A1 (US Dept. of Health and Human Services, published 2025).
Positions count from the first letter of the chain named.

Columns and labels:
Assay in all cases: bead flow cytometry, AUC minus CD4
[1] = molecular target: SARS-CoV-2 spike N-terminal domain (NTD), recombinant (SARS-CoV-2, UniProt P0DTC2 14-305)
[2] = molecular target: SARS-CoV-2 spike receptor binding domain (RBD), recombinant (SARS-CoV-2, UniProt P0DTC2 319-541)
[3] = molecular target: T1, HCoV-NL63 spike protein (Sino Biological 40604-V08B) (HCoV-NL63, UniProt Q6Q1S2 19-1296)
T1 sequence: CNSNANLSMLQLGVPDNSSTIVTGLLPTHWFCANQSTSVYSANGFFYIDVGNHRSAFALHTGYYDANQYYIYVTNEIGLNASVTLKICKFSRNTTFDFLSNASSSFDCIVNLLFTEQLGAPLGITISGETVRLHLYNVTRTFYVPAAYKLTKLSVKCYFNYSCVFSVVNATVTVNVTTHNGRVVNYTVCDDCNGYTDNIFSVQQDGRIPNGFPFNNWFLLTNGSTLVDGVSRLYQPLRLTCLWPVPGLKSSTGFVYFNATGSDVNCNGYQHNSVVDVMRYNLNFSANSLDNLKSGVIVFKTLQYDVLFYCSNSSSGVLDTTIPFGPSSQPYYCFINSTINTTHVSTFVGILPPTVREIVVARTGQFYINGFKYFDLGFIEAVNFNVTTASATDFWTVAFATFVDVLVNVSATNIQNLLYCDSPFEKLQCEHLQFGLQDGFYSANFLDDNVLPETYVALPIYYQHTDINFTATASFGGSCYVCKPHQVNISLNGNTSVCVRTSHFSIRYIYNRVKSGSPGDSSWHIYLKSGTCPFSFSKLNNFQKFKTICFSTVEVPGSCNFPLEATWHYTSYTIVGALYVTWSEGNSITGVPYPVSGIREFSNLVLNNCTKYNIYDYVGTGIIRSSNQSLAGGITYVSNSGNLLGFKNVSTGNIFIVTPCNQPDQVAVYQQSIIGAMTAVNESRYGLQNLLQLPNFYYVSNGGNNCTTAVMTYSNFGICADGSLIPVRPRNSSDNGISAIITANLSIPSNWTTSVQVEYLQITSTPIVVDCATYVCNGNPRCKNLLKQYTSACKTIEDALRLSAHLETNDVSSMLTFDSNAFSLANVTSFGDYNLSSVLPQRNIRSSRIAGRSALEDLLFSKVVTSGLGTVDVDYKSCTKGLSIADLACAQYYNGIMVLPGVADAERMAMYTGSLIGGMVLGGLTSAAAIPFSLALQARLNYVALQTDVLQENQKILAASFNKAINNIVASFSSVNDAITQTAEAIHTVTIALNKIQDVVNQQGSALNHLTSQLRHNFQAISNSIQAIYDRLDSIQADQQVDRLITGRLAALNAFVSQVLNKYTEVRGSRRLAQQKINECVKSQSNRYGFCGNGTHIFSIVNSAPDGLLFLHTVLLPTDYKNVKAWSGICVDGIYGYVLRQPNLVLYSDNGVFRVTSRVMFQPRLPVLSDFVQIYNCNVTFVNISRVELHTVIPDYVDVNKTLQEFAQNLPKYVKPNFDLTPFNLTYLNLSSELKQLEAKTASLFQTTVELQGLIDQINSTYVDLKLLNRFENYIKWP

[4] = molecular target: T2, HCoV-229E spike protein (Sino Biological 40605-V08B) (HCoV-229E, UniProt P15423 16-1115)
T2 sequence: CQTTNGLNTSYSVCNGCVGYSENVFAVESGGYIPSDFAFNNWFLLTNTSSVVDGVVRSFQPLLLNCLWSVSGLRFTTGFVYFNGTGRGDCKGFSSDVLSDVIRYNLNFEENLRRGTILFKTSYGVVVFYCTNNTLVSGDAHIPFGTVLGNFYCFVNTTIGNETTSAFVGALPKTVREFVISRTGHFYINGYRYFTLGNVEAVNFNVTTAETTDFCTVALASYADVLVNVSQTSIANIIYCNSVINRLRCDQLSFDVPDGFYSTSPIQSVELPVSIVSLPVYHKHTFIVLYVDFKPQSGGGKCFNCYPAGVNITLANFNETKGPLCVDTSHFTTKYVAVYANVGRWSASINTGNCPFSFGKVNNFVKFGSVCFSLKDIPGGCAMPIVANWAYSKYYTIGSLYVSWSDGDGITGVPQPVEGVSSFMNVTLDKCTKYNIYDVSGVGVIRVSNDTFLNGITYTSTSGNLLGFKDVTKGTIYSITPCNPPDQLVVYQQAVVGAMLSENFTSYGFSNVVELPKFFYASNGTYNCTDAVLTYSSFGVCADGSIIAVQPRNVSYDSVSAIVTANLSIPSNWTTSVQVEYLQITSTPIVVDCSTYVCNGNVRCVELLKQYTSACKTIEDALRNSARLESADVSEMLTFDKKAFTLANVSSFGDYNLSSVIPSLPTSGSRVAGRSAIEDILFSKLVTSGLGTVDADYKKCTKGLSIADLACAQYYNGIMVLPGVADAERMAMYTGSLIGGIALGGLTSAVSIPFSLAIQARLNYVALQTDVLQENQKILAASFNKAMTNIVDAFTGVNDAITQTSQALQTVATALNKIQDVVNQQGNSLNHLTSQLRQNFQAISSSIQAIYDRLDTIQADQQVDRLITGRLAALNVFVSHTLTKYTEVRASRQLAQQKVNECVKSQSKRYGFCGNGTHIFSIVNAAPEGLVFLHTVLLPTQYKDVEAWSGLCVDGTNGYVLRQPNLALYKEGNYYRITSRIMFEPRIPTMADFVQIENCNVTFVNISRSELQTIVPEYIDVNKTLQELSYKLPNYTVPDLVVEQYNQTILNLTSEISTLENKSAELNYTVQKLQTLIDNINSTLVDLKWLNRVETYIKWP

Measured: binding result

B1: COV44-54 (antibody, V domains shown)
VH: QVQLVQSGAEVKKPGASVRVSCKTSGYTFTNYYMTWVRQAPGQGLQWVGLISPSAGYTAYAQMFQGRVTMTSDTSTSTVYMQLSSLRSEDTAIYYCTRVAVAGPNDYWGQGTLVTVSS
VL: EIVLTQSPGTLSLSPGERATLSCRASQSISGSYLAWYQQKPGQAPRLVIYAASSRATGIPDRFSGSGSGTDFILTISRLEAEDFAVYFCQHYRSSPPLWTFGQGTKVEIR
no binding (tested: 200 µg/mL): [1] | [2] | [3] | [4]

B2: COV93-03 (antibody, V domains shown)
VH: QLQLVQSGAEVKKPGASVKLSCKASGNTFTSHYIHWVRQAPGQGPEWMGIINPSGSGTRYAQKFQGRVTMTRDTSTSTVYMELVSLRFEDTAVYYCAGDYYLDYWGQGTLVTVSS
VL: EFVLTQSPGTLSLSPGERATLSCRASQSVTSNYLAWYQQKPGQAPRLLIFGASSRATGIPDRFSGSGSGTDFTLTISRLEPEDFAVYYCQQYGSSPPMYTFGPGTKVEIK
no binding (tested: 200 µg/mL): [1] | [2] | [3] | [4]

B3: COV30-14 (antibody, V domains shown)
VH: QVQLVQSGAEVKKPGASVKVSCQTSGYTFTSYYMHWVRQAPGQGLEWMGLITPSGDDTYYAQRFQGRVTMTRDTSTSPTYMELSSLTSEDTAVYYCAKMSRAGGFDVWGQGTLVTVSS
VL: EVVLTQSPGTLSLSPGERATLSCRASQSITGRYLAWYQQKPGQAPRLLMYGESSRVTGIPDRFSGGGSGTDFTLTISRLEPEDFAVYYCQHFASSPPTYTFGQGTKLEIR
no binding (tested: 200 µg/mL): [1] | [3] | [4]

B4: COV44-56 (antibody, V domains shown)
VH: QVLLVQSGAEVKKPGASVMVSCKASGYILNNYYMHWVRQAPGHGLEWMGIINPSGDGTRYAQKFQGRVTMTRDSSTTSIHMELRRVTSEDTAVYYCARGGSQSAFDMWGQGTVVLVSS
VL: DIVMTQSPRSLPVTPGESASISCRSSQSLLQKNGYNYLDWYVQKPGQSPQLLIYLGSYRASGVPDRISGSGSGTDFTLKINRVEAEDVGVYYCLQAQQAPPLYTFGQGTKLQIE
no binding (tested: 200 µg/mL): [1] | [2] | [3] | [4]

B5: COV49-51 (antibody, V domains shown)
VH: QVQLVQSGAEAKKPGASVKVSCKASGYSFTSYHMHWVRQAPGQGLEWMGIINPNGGTTTYAPKFQGRVTMTSDTSTSTVYMELTSLRSEDTAVYYCSTVVGALWGQGTLVIVSS
VL: IVLTQSPGTLSLSPGERATLSCRASQSVRSNNYLAWYQQKPGQAPRLLIYGASTRATGIPDRFSGSGSGTDFTLTISRLEPEDFAVYYCQQYGSSPLTFGGGTRVEIK
no binding (tested: 200 µg/mL): [1] | [2] | [3] | [4]

B6: COV93-17 (antibody, V domains shown)
VH: EVQLVQSGAEVKKPGESLRISCRGSGYSFTNYWISWVRQMPGKGLEWMGRIDPTDSYTNYSPSFQGHVTISTDKSISTAYLQWSSLKASDTAMYYCARHKNGMIHEYDYWGQGILVTVSS
VL: DIQLTQSPSTLSASVGDRVTITCRASQSIRSWLAWYQQKPGKAPKLLIYRASSLESGVPSRFSGSGSGTEFTLTISSLQPDDFATYYCQQYGTFGPGTKVDIR
no binding (tested: 200 µg/mL): [1] | [2] | [3] | [4]

B7: COV93-08 (antibody, V domains shown)
VH: QVQLRESGPGVVKPSGTLSLTCTVSGDFINNNRWWTWVRQSPGKGLEWIGEIYHSGSTNYNPSLKGRVTISVDKSKNHFSLKLTSVTAADTAMYYCARGGYCTVGDCHDNWFDPWGQGTLVTVSS
VL: DIQMTQSPSTLSASVGDRVTITCRASQNINSWLAWYQQKPGKAPKVLIYKASSLESGVPSRFSGSVSGTEFTLTISSLQPDDFATYYCQQYSTLSWTFGQGTKVDIK
no binding (tested: 200 µg/mL): [1] | [2] | [3] | [4]

B8: COV93-38 (antibody, V domains shown)
VH: B7 VH with R5Q, T23A, I29S, Y53H, H54Q, G66S, V68I, H78Q, M93V, T103S
VL: B7 VL with N28T, T93S
no binding (tested: 200 µg/mL): [1] | [2] | [3] | [4]

B9: COV72-37 (antibody, V domains shown)
VH: QVQLVQSGAEVKKPAASVKVSCKASGDTFSSHYMHWVRQAPGQGPEWMGIINPSGSGTAYGQKFQGRLTMTRDTSTSTVYMELSSLTSDDTAVYYCGGGSGGLFAYWGQGTLVTVSS
VL: EIVLTQSPGTLSLSPGERATLSCRASQIVRSNYLAWYQQKPGQAPRLLIYGASSRATGTPDRFSGGGSGTDFTLTINRLEPEDFAVYYCLQYDSSPPTYIFGQGTKLEIK
no binding (tested: 200 µg/mL): [1] | [3] | [4]

B10: COV49-03 (antibody, V domains shown)
VH: DVQLLESGGGLVQPGGSRRLSCAASGFTFSNYAMSWVRQAPGKGLEWVSAISGGGATTYYADSVQGRFTMSRDNSNNTLYLQMSSLRAEDTAVYYCTKGAFYDILSSIIVEGDYWGQGTLVTVSS
VL: DVVLTQSPLSLPITLGQPASISCRSSQSLVFSDGNTYLNWFQQRPGQSPRRLIYKVSNRDSGVPDRFSGSGSGTDFTLKISRVEAEDVGVYYCMQGTHWLSITFGQGTRLEIK
no binding (tested: 200 µg/mL): [1] | [2] | [3] | [4]
